Patent US20090297440A1 (published 2009)

T1: purified recombinant C35 protein generated in E. coli (human, UniProt Q9BRT3 1-115, limits assumed)
T1 construct: Generated and purified from E. coli with cleavage of selection tags; also called hC35 protein; soluble C35 protein
T1 sequence: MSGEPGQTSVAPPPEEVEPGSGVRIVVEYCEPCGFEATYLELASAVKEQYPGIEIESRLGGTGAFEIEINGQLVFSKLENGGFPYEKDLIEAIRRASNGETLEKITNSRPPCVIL

T2: C35 protein, recombinant, bacterially synthesized (human, UniProt Q9BRT3 1-115, limits assumed)
T2 construct: also called hC35 protein; bacterially-synthesized C35
T2 sequence: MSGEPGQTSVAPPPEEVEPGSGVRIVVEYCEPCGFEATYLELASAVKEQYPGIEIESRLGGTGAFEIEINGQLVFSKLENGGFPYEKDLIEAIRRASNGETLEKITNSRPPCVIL


molecular target: HLA-A*0201 (human, UniProt A*02:01); experiment: fluorescence polarization competition, test peptide at 100 uM against fluorescent-labeled peptide on HLA-A*0201; from Ymax, calibrated with irrelevant (0%) and relevant (100%) competitor

Binder | % inhibition [%]
TYLELASAV [C35 peptide T38 to V46] | 47.3
ITNSRPPCV [C35 peptide I105 to V113] | 86.4
FEIEINGQL [C35 peptide F65 to L73] | 74.8
SVAPPPEEV [C35 peptide S9 to V17] | 96.9

Next, values leading:

% inhibition [%] | Binder
46.5 | GTGAFEIEI [C35 peptide G61 to I69]
90.8 | SGVRIVVEY [C35 peptide S21 to Y29]

molecular target: T1, purified recombinant C35 protein …; experiment: ELISA, hybridoma supernatant on coated C35 protein

binding result | Binder
binds | hybridoma clone 1B3 antibody (antibody, mouse IgG1, V domains shown, Murine IgG1 from BCA34.hC35 immunization) VH: EVQLQESGPSLVKPSQTLSLTCSVTGDSITSGYWNWIRKFPGNKLEYVGYISYSGGTYYNPSLKSRISITRDTSKNHYYLQLNSVTTEDTATYYCARGAYYGGAFFPYFDVWGAGTTVTVSS VL: DVQITQSPSFLAASPGETITINCRASKYISKHLVWYQEKPGETKKLLIYSGSTLQSGLPSRFSGSGSGTDFTLTISSLEPEDFAMYYCQQHNEYPLTFGAGTKLELK
binds | hybridoma clone 3E10 antibody (antibody, mouse IgG1, V domains shown, Murine IgG1 kappa from BCA34.hC35 immunization) VH: EVQLQESGPSLVKPSQTLSLTCSVTGDSITSGYWNWIRKFPGNKLEYVGYISYSGGTYYNPSLKSRISITRDTSKNHYYLQLNSVTTEDTATYYCARGAYYGGAFFPYFDVWGAGTTVTVSS VL: DVQITQSPSFLAASPGETITINCRASKYISKHLVWYQEKPGETKKLLIYSGSTLQSGLPSRFSGSGSGTDFTLTISSLEPEDFAMYYCQQHNEYPLTFGAGTKLELK

molecular target: T2, C35 protein, recombinant, bacterially …; experiment: ELISA screen of hybridoma supernatants on plates coated with C35 protein

binding result | Binder
binds | 3E10 monoclonal antibody (antibody, V domains shown, Mouse IgG1 kappa, tested as hybridoma supernatant) VH: EVQLQESGPSLVKPSQTLSLTCSVTGDSITSGYWNWIRKFPGNKLEYVGYISYSGGTYYNPSLKSRISITRDTSKNHYYLQLNSVTTEDTATYYCARGAYYGGAFFPYFDVWGAGTTVTVSS VL: DVQITQSPSFLAASPGETITINCRASKYISKHLVWYQEKPGETKKLLIYSGSTLQSGLPSRFSGSGSGTDFTLTISSLEPEDFAMYYCQQHNEYPLTFGAGTKLELK
binds | 1B3 monoclonal antibody (antibody, V domains shown, Mouse IgG1 kappa, tested as hybridoma supernatant) VH: EVQLQESGPSLVKPSQTLSLTCSVTGDSITSGYWNWIRKFPGNKLEYVGYISYSGGTYYNPSLKSRISITRDTSKNHYYLQLNSVTTEDTATYYCARGAYYGGAFFPYFDVWGAGTTVTVSS VL: DVQITQSPSFLAASPGETITINCRASKYISKHLVWYQEKPGETKKLLIYSGSTLQSGLPSRFSGSGSGTDFTLTISSLEPEDFAMYYCQQHNEYPLTFGAGTKLELK
